Read-outs that look alike come from different tables or passages of the source.
Key:
[1] = biological target: T1, CD19 on CD19-expressing Raji B cells (human, UniProt P15391 20-556); test: FACS, Raji cells
T1 construct: whole, on cells
T1 sequence (looked up): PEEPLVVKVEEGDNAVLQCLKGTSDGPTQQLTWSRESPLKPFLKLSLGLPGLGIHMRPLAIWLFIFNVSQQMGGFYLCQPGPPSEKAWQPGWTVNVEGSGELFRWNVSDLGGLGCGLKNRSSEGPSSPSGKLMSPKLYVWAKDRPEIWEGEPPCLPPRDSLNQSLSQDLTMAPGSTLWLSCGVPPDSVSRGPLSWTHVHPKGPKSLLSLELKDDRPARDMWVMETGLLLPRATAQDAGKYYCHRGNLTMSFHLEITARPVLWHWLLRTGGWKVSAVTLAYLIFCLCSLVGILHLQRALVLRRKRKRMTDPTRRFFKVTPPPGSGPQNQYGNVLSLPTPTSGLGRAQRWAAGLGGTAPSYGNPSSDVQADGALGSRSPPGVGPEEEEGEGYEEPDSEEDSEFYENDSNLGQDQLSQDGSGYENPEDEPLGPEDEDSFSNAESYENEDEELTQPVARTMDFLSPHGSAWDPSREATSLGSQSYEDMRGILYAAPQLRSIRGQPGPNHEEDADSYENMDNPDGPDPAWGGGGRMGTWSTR

[2] = biological target: T2, CD32aWT (UniProt P12318 36-218); test: SPR, antibody captured, FcγR injected
T2 construct: also called CS32a
T2 sequence (looked up): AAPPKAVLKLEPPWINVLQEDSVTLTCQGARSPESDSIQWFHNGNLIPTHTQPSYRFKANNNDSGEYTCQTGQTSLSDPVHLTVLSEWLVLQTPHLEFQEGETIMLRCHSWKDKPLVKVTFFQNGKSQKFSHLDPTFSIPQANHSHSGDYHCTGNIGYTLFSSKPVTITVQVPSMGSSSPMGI

[3] = biological target: T3, CD32bWT (UniProt P31994 43-217); test: SPR, antibody captured, FcγR injected
T3 sequence (looked up): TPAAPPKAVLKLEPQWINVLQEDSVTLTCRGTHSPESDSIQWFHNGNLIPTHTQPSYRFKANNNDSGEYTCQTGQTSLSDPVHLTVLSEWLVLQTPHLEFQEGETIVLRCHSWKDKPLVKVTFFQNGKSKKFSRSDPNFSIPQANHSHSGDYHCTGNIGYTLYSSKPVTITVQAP

[4] = biological target: T4, CD3 on CD3-expressing T cells (Jurkat, HPB-ALL) (UniProt P07766 23-207); test: FACS, Jurkat cells
T4 construct: whole, on cells; A multi-chain complex on cells; also called CD3 complex

[5] = biological target: T5, mouse CD19 on Mouse spleen cells (mouse, UniProt P25918); test: FACS on freshly isolated mouse spleen cells, Mean RFU normalized to human IgG
T5 construct: on the surface of freshly isolated mouse spleen cells
T5 sequence (CD19 on the cell surface, looked up): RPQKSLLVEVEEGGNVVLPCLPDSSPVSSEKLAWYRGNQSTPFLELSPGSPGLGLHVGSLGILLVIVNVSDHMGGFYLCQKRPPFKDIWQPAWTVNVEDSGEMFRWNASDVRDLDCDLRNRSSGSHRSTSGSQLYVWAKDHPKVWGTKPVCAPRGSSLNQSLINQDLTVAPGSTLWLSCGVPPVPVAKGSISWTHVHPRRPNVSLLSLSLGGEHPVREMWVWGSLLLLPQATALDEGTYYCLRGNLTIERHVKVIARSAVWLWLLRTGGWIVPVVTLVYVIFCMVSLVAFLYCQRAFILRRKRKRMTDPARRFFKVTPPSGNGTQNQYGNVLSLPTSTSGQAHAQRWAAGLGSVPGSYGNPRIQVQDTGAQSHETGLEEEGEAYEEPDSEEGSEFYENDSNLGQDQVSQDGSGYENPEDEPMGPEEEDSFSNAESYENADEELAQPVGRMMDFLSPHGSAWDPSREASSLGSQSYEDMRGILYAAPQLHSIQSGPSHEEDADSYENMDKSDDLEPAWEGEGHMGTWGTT

[6] = biological target: T4, CD3 on CD3-expressing T cells (Jurkat, …); test: FACS, HBP-ALL T cells
[7] = biological target: T4, CD3 on CD3-expressing T cells (Jurkat, …); test: FACS, HPB-ALL cells
[8] = biological target: CD16aWT (UniProt P08637 17-208); test: SPR, antibody captured, FcγR injected
[9] = biological target: T4, CD3 on CD3-expressing T cells (Jurkat, …); test: whole cell binding by FACS on CD3-expressing Jurkat T cells; concentration not shown
[10] = biological target: T6, cynomologous CD3 receptor antigen (coated, ELISA) (cynomolgus [Macaca fascicularis], UniProt Q95LI5 22-117); test: ELISA on coated cynomolgus CD3 receptor antigen ('Cyno-CD3-HEK'), anti-human Fcgamma specific secondary antibody, TMB, OD450
T6 sequence (looked up): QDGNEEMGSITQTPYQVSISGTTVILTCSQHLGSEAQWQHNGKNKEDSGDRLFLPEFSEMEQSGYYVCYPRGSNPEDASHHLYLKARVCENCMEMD

[11] = biological target: T1, CD19 on CD19-expressing Raji B cells; test: FACS, Raji cells; remark: listed apart in the source
[12] = biological target: T1, CD19 on CD19-expressing Raji B cells; test: whole cell binding by FACS on Raji B cells, RFU against concentration (nM, log axis)

B1: v1379, anti-CD19 BiTE (VL-VH) scFv / anti-CD3 BiTE (VH-VL) scFv heterodimeric Fc (bispecific antibody)
chain 1: DIQLTQSPASLAVSLGQRATISCKASQSVDYDGDSYLNWYQQIPGQPPKLLIYDASNLVSGIPPRFSGSGSGTDFTLNIHPVEKVDAATYHCQQSTEDPWTFGGGTKLEIKGGGGSGGGGSGGGGSQVQLQQSGAELVRPGSSVKISCKASGYAFSSYWMNWVKQRPGQGLEWIGQIWPGDGDTNYNGKFKGKATLTADESSSTAYMQLSSLASEDSAVYFCARRETTTVGRYYYAMDYWGQGTTVTVSSAAEPKSSDKTHTCPPCPAPELLGGPSVFLFPPKPKDTLMISRTPEVTCVVVDVSHEDPEVKFNWYVDGVEVHNAKTKPREEQYNSTYRVVSVLTVLHQDWLNGKEYKCKVSNKALPAPIEKTISKAKGQPREPQVYVYPPSRDELTKNQVSLTCLVKGFYPSDIAVEWESNGQPENNYKTTPPVLDSDGSFALVSKLTVDKSRWQQGNVFSCSVMHEALHNHYTQKSLSLSPGK
chain 2: not shown
notes: WT effector Fc; copies: 1 + 1
[1]
  Kd: 2.12 nM
[2]
  Kd: 600 nM
[3]
  Kd: 470 nM

B2: v875, bispecific anti-CD19 BiTE (VL-VH) scFv / anti-CD3 OKT3 (VL-VH) scFv on a heterodimeric IgG1 Fc (bispecific antibody)
chain 1: DIQLTQSPASLAVSLGQRATISCKASQSVDYDGDSYLNWYQQIPGQPPKLLIYDASNLVSGIPPRFSGSGSGTDFTLNIHPVEKVDAATYHCQQSTEDPWTFGGGTKLEIKGGGGSGGGGSGGGGSQVQLQQSGAELVRPGSSVKISCKASGYAFSSYWMNWVKQRPGQGLEWIGQIWPGDGDTNYNGKFKGKATLTADESSSTAYMQLSSLASEDSAVYFCARRETTTVGRYYYAMDYWGQGTTVTVSSAAEPKSSDKTHTCPPCPAPELLGGPSVFLFPPKPKDTLMISRTPEVTCVVVDVSHEDPEVKFNWYVDGVEVHNAKTKPREEQYNSTYRVVSVLTVLHQDWLNGKEYKCKVSNKALPAPIEKTISKAKGQPREPQVYTYPPSRDELTKNQVSLTCLVKGFYPSDIAVEWESNGQPENNYKTTPPVLDSDGSFALVSKLTVDKSRWQQGNVFSCSVMHEALHNHYTQKSLSLSPGK
chain 2: not shown
notes: Chain A/B is assigned by order only; copies: 1 + 1
[4]
  Bmax (OD450): 1.59 OD450
  Kd: 21.4 nM
[5]
  binding result: no binding (tested: 100 nM)
[6]
  Kd: 19.1 nM
[7]
  Kd: 4.7 nM
[2]
  Kd: 590 nM
[8]
  Kd: 1000 nM
[3]
  Kd: 430 nM

B3: one-armed anti-CD19 antibody (v869: anti-CD19 BiTE scFv (VL-VH) on chain A, Fc only on chain B) (antibody)
chain 1: DIQLTQSPASLAVSLGQRATISCKASQSVDYDGDSYLNWYQQIPGQPPKLLIYDASNLVSGIPPRFSGSGSGTDFTLNIHPVEKVDAATYHCQQSTEDPWTFGGGTKLEIKGGGGSGGGGSGGGGSQVQLQQSGAELVRPGSSVKISCKASGYAFSSYWMNWVKQRPGQGLEWIGQIWPGDGDTNYNGKFKGKATLTADESSSTAYMQLSSLASEDSAVYFCARRETTTVGRYYYAMDYWGQGTTVTVSSAAEPKSSDKTHTCPPCPAPELLGGPSVFLFPPKPKDTLMISRTPEVTCVVVDVSHEDPEVKFNWYVDGVEVHNAKTKPREEQYNSTYRVVSVLTVLHQDWLNGKEYKCKVSNKALPAPIEKTISKAKGQPREPQVYTYPPSRDELTKNQVSLTCLVKGFYPSDIAVEWESNGQPENNYKTTPPVLDSDGSFALVSKLTVDKSRWQQGNVFSCSVMHEALHNHYTQKSLSLSPGK
chain 2: not shown
notes: also called anti-CD19 OAA; anti-CD19 one arm constructs
[9]
  binding result: no binding

B4: v1666-213-A (bispecific antibody)
chain 1: not shown
chain 2: DIQLTQSPASLAVSLGQRATISCKASQSVDYDGDSYLNWYQQIPGQPPKLLIYDASNLVSGIPPRFSGSGSGTDFTLNIHPVEKVDAATYHCQQSTEDPWTFGGGTKLEIKGGGGSGGGGSGGGGSQVQLQQSGAELVRPGSSVKISCKASGYAFSSYWMNWVKQRPGQGLEWIGQIWPGDGDTNYNGKFKGKATLTADESSSTAYMQLSSLASEDSAVYFCARRETTTVGRYYYAMDYWGQGTTVTVSSAAEPKSSDKTHTCPPCPAPEAAGGPSVFLFPPKPKDTLMISRTPEVTCVVVSVSHEDPEVKFNWYVDGVEVHNAKTKPREEQYNSTYRVVSVLTVLHQDWLNGKEYKCKVSNKALPAPIEKTISKAKGQPREPQVYVLPPSRDELTKNQVSLLCLVKGFYPSDIAVEWESNGQPENNYLTWPPVLDSDGSFFLYSKLTVDKSRWQQGNVFSCSVMHEALHNHYTQKSLSLSPGK
[10]
  binding result: no binding (tested: 300 nM)

B5: v1381, anti-CD19 BiTE (VL-VH) scFv / anti-CD3 BiTE (VH-VL) scFv heterodimeric Fc with N297A (bispecific antibody)
chain 1: DIQLTQSPASLAVSLGQRATISCKASQSVDYDGDSYLNWYQQIPGQPPKLLIYDASNLVSGIPPRFSGSGSGTDFTLNIHPVEKVDAATYHCQQSTEDPWTFGGGTKLEIKGGGGSGGGGSGGGGSQVQLQQSGAELVRPGSSVKISCKASGYAFSSYWMNWVKQRPGQGLEWIGQIWPGDGDTNYNGKFKGKATLTADESSSTAYMQLSSLASEDSAVYFCARRETTTVGRYYYAMDYWGQGTTVTVSSAAEPKSSDKTHTCPPCPAPELLGGPSVFLFPPKPKDTLMISRTPEVTCVVVDVSHEDPEVKFNWYVDGVEVHNAKTKPREEQYASTYRVVSVLTVLHQDWLNGKEYKCKVSNKALPAPIEKTISKAKGQPREPQVYVYPPSRDELTKNQVSLTCLVKGFYPSDIAVEWESNGQPENNYKTTPPVLDSDGSFALVSKLTVDKSRWQQGNVFSCSVMHEALHNHYTQKSLSLSPGK
chain 2: not shown
notes: Fc knock-out N297A on both chains; copies: 1 + 1
[1]
  Bmax: 13900
  Kd: 2.36 nM
[2]
  binding result: no binding (tested: FcγR injected up to 10,000 nM)
[8]
  binding result: no binding (tested: FcγR injected up to 10,000 nM)
[3]
  binding result: no binding (tested: FcγR injected up to 10,000 nM)

B6: v873, bispecific anti-CD19 BiTE (VL-VH) scFv / anti-CD3 BiTE (VH-VL) scFv on a heterodimeric IgG1 Fc (bispecific antibody)
chain 1: DIQLTQSPASLAVSLGQRATISCKASQSVDYDGDSYLNWYQQIPGQPPKLLIYDASNLVSGIPPRFSGSGSGTDFTLNIHPVEKVDAATYHCQQSTEDPWTFGGGTKLEIKGGGGSGGGGSGGGGSQVQLQQSGAELVRPGSSVKISCKASGYAFSSYWMNWVKQRPGQGLEWIGQIWPGDGDTNYNGKFKGKATLTADESSSTAYMQLSSLASEDSAVYFCARRETTTVGRYYYAMDYWGQGTTVTVSSAAEPKSSDKTHTCPPCPAPELLGGPSVFLFPPKPKDTLMISRTPEVTCVVVDVSHEDPEVKFNWYVDGVEVHNAKTKPREEQYNSTYRVVSVLTVLHQDWLNGKEYKCKVSNKALPAPIEKTISKAKGQPREPQVYTYPPSRDELTKNQVSLTCLVKGFYPSDIAVEWESNGQPENNYKTTPPVLDSDGSFALVSKLTVDKSRWQQGNVFSCSVMHEALHNHYTQKSLSLSPGK
chain 2: not shown
notes: chain A/B is assigned by order only; also called bispecific CD19-CD3(VH-VL-BiTE)
[11]
  Kd: 2.7 nM
[5]
  binding result: no binding (tested: 100 nM)
[12]
  EC50 (read off the curve): ~3 nM
